Test results published in patent US20080176793A1, “UPREGULATING ACTIVITY OR EXPRESSION OF BDNF TO MITIGATE COGNITIVE IMPAIRMENT IN ASYMPTOMATIC HUNTINGTON'S SUBJECTS” (THE REGENTS OF THE UNIVERSITY OF CALIFORNIA, priority 2006, published 2008).

How the values were obtained:
Assay type in all cases: cell-based
[1] = system: hippocampal slices from Hdh^Q111 mice; assay: TBS-induced long-term potentiation (fEPSP slope) in acute hippocampal slices, field CA1
Procedure: (§1) Acute hippocampal slices were prepared, as described elsewhere (Kramar et al. (2004) J. Neurosci. 24: 5151-5161), from 8 week old Hdh^Q111, 24 week old Hdh^Q92 and age-matched WT mice and maintained at 32° C. in an interface chamber of local design. Synaptic responses (fEPSPs) were generated by stimulating the Schaffer-commissural afferents to the apical dendrites of field CA1b pyramidal cells using stimulating electrodes positioned in fields CA1a and CA1c. For baseline recording, fEPSPs were set to 30% of the maximum responses and low frequency stimulation (3 pulses/min) was delivered. The slope of the descending phase of the fEPSP was used as a measure of response size with all values normalized to a 15 min baseline period collected 1-2 h after slice preparation. LTP was induced with a single TBS train (ten bursts of 4 pulses at 100 Hz, inter-burst interval of 200 ms). BDNF (2 nM) was prepared and delivered to slices as described previously (Menalled (2005) NeuroRx 2: 465-470).
(§2) For all electrophysiology experiments, results are summarized in the text as a percent increase in responses from baseline. Data are presented as mean ±s.d. in the text and mean ±s.e.m. in the figures.

[2] = system: hippocampal slices from Hdh^Q111 mice; assay: Within-train facilitation of theta burst responses in hippocampal slices; settings: BDNF-treated Hdh^Q111 slices
From the text: Events that occur during the two-second period of TBS can potently influence the threshold, initial expression, magnitude, and stability of LTP (Arai and Lynch (1992) Eur. J. Neurosci. 4: 411-419; Larson et al. (1986) Brain Res. 368: 347-350). […] In marked contrast, the facilitation of the second and subsequent burst responses, each a composite of four closely spaced fEPSPs, was greatly attenuated in Hdh^Q111 slices (FIG. 2, panel a, e.g. burst 4). The facilitation effect was quantified by expressing the areas of burst responses 2-10 as fractions of the area of the first burst response.
as §1, §2

[3] = system: hippocampal slices from Hdh^Q111 mice; assay: In situ rhodamine-phalloidin labeling of F-actin (TBS-induced actin polymerization in dendritic spines); settings: BDNF 2 nM, Hdh^Q111 slices after TBS, n=13, mean ±s.d.
Procedure: Physiological recording and delivery of TBS or low frequency stimulation was performed as described above. Starting 20 min after TBS, rhodamine-phalloidin (6 μM/2-4 μl; from Sigma, St. Louis, Mo., or Invitrogen, Carlsbad, Calif.) was applied topically (Kramar et al. (2006) Proc. Natl. Acad. Sci., USA, 103: 5579-5784) via micropipette 3 times separated by 3 min. To test the effects of BDNF on actin polymerization, BDNF (2 nM) or artificial cerebral spinal fluid was delivered to WT and Hdh^Q111 slices via a reperfusion pump system (Cole-Palmer, Vernon Hills, Ill.) at 1 ml/min 1-2 h before recording. […]
Sections were examined with epifluorescence illumination using an Olympus AX70 photomicroscope. Quantitative analyses were carried out on three serial sections situated 20 to 80 μm below the surface of original slice. […] These images were then converted to grayscale and intensity levels were cropped at values determined for each experiment to visualize low-intensity labeling.
Labeled spine-like structures were measured and counted from a 550 μm^2 sampling zone in the proximal stratum radiatum between the two stimulating electrodes using in-house software described in detail previously (Kramar et al. (2006) Proc. Natl. Acad. Sci., USA, 103: 5579-5784; Lin et al. (2005) J. Neurosci. 25: 2062-2069). […]

B1: BDNF: the neurotrophin, Brain-Derived Neurotrophic Factor, delivered at 2 nM to hippocampal slices (protein, UniProt P23560 19-247, looked up)
Neurotrophic factor BDNF …: APMKEANIRGQGGLAYPGVRTHGTLESVNGPKAGSRGLTSLADTFEHVIEELLDEDQKVRPNEENNKDADLYTSRVMLSSQVPLEPPLLFLLEEYKNYLDAANMSMRVRRHSDPARRGELSVCDSISEWVTAADKKTAVDMSGGTVTVLEKVPVSKGQLKQYFYETKCNPMGYTKEGCRGIDKRHWNSQCRTTQSYVRALTMDSKKRIGWRFIRIDTSCVCTLTIKRGR
effect on baseline transmission ([1]; BDNF 2 nM infused for 60 min, Hdh^Q111 or WT slices): did not detectably change baseline transmission
LTP compared with WT slices ([1]; BDNF 2 nM, Hdh^Q111 slices (FIG. 7, panel a)): not detectably different from WTs
percent potentiation 45 min after TBS ([1]; BDNF 2 nM, Hdh^Q111 slices, mean ±s.d.): 43.6±23.5%
LTP at 20 min post-TBS (percent increase in responses from baseline) ([1]; BDNF 2 nM, Hdh^Q111 slices, n=11, mean ±s.d.): 59.9±28.3%
potentiation at end of 60 min post-TBS recording ([1]; BDNF 2 nM, subgroup of Hdh^Q111 slices, n=4): stable potentiation was present at the end of recording
effect on responses to stimulation bursts in the theta train [2]: did not facilitate responses to any stimulation burst
burst 9 greater than burst 1 ([2]; mean ±s.d.): −5.8±9.3%
Facilitation of the second burst response ([2]; relative to burst 1, mean ±s.d.): 46.1±10.2%
number of phalloidin-labeled spines in the high-intensity bins [3]: 40.5±39.3 per 550 μm^2
